Assay results reported in patent US20250145690A1 (US Dept. of Health and Human Services, published 2025).
Residue numbers refer to the chain shown, from its start.

T1: HCoV-NL63 spike protein (Sino Biological 40604-V08B) (HCoV-NL63, UniProt Q6Q1S2 19-1296)
T1 sequence: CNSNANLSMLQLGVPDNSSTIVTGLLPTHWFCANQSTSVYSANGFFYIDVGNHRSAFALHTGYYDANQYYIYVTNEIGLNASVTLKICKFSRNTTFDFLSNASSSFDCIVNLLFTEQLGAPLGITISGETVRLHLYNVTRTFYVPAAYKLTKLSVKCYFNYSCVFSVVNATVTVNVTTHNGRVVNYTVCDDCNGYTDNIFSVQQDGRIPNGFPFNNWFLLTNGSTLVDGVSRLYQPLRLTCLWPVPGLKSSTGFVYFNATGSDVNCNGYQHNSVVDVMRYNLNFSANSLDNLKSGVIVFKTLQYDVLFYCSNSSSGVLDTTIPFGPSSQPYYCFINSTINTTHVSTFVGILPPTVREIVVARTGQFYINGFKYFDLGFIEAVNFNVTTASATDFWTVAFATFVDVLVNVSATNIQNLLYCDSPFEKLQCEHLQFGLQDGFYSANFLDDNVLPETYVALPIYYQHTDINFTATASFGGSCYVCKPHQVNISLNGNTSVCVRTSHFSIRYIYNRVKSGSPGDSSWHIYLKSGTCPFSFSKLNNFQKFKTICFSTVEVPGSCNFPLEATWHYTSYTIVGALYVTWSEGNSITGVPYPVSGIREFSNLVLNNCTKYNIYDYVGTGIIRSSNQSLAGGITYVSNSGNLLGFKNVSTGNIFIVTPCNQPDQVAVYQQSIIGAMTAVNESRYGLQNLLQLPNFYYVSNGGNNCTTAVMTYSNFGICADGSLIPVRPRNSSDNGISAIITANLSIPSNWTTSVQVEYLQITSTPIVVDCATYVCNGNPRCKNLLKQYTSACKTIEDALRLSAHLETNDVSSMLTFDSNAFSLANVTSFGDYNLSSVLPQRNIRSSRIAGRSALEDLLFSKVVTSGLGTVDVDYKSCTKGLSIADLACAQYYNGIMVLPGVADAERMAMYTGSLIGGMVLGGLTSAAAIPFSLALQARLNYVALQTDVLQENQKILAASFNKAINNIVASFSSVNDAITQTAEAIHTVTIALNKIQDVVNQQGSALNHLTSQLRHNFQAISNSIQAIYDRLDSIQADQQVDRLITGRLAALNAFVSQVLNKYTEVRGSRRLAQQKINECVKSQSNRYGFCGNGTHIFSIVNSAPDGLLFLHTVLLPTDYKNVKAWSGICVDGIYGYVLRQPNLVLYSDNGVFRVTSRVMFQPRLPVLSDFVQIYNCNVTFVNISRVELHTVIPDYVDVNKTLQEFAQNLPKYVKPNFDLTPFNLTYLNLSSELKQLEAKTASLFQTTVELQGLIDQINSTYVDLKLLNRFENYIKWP

B1: COV77-42 (antibody, V domains shown)
VH: QVYLQESGPGLVKPSQTLSLTCAVSGGSIRSDGYYWTWIRQHPGKGLEWIGNTYYNGNTYYNPSLRSRVTTSLDTSKNQFSLKVVSMTGADTAVYYCARGRLGFCAGGACFLDTLDYWGQGTLVTVSS
VL: EIVMTQSPVTLSVSPGERVTLSCRADQSVNNNLAWYQQKPGQAPRLLIHGASTRATGIPARFSGSGSGTEFTLTISSLQSEDFAIYYCQQYYNWLLTFGGGTKLEIK
B2: COV77-05 (antibody, V domains shown)
VH: QMQLHESGPGLVKPSQTLSLTCAVSGGSISSDGYYWNWVRQHPGKGLELIAYIYYNGRPYYNPSLRSRVNISLDTSMNQFSLRMKSLTAADTAVYYCARGRLGYCAGGSCFLESFDYWGQGALVTVSS
VL: EIVMTQSPATLSVSPGETATLSCRASESISSNLAWYQQKPGQAPRLLIYGASTRATGIPARFSGSGSGTEFALTISSLQAEDFAVYSCQQYHNWLLTFGGGTKVEIK
B3: COV89-22 (antibody, V domains shown)
VH: QEQLVQSGAEVKKPGASVKVSCKSSGFTFSYFYLHWVRQAPGQGLEWMGIINPRGDGTRYAQKFQGRVTMTRDASTGTLYMELRSLRSEDTAVYYCARGADHGAFDIWGQGTMVTVSS
VL: EIVLTQSPGTLSLSPGERATLSCRASQSVRRNYFAWYQQKRGQAPRLLIYDASTRATGIPDRFSGSGSGTDFTLTISRLEPEDFAVYYCQQYDSSPPMYIFGQGTKLEIK
B4: COV30-35 (antibody, V domains shown)
VH: QVQLQESGPGQVKPSGTLSLTCAVSGGSINSSNWWSWVRQPPGKGLEWIGEIFHSGNTNYKPSLESRVTISFDKSKKELSLRLTSVTAADTAVYYCATLFCSGGTCYLGDWGQGTLVTVSS
VL: EIVLTQSPGTLSVSPGQRATLSCRASESVSSRYVAWYQQKPGQAPRLIIYGASSRATGIPDRFSGSGSGTEFILSISRLEPEDSAVYYCQQYGSSPTFGGGTKVEIK
B5: COV44-25 (antibody, V domains shown)
VH: QVQLVDSGGGAVQPGTSLRLSCAASGFTFNTYAFHWVRQAPGKGLEWVAVISDDGNNKYYADSVKGRFTISRDDSKNTLSLQMDSLRVEDAAVYFCARGSYNSNWSLGEYFDYWGQGSLVTVSS
VL: DIVMTQSPDSLPVSLGERATINCKSSQSVLHSSNNKNYLAWYQQKPGQSPKLLISWASTRESGVPDRFSGSGSGTHFTLTISSLRAEDVAVYYCLQYFNNQYTFGQGTKLEIK
B6: COV77-04 (antibody, V domains shown)
VH: QVRLQESGPGLVKPSETLSVTCTVSGVSISNYYWSWIRQPPGKGLEWIGYISDTGSTNYSPSLQSRVTISVDMSKNQVSLEVTSVTATDTAVYYCARTTTSVPFDYWGKGVLVTVSS
VL: SYELTQPPSVSVSPGQVARITCSGEALPKKYAYWYQHKPGQFPLLVIHKDSERPSGIPERFSGSSSGTVVTLTISGVQAEDEADYFCLSTDGSTTWVFGGGTKLTVL
B7: COV77-39 (antibody, V domains shown)
VH: RVQLQESGPGLVKPSETLSLTCTVSGGSITDDYWNWIRQPPGKGLEWIGYVHDSGTTNYNPSLKSRVTLSLHTSGNKFSLRLTSVTAADTAMYYCARTTTTFPFDSWGQGTLVIVSS
VL: SYELTQPPSVSVSLGQMARITCSGEALPKKYVYWYQQKPGQFPVLVIYKDRERPSGIPERFSGSSSGTIVTLTISGVQAEDEADYYCLSVDSTANWVFGGGTKLTVL
B8: COV30-80 (antibody, V domains shown)
VH: QVQLVESGGGVVQPGRSLRLSCAASGFTFSSYAMHWVRQAPGKGLEWVAVISYDGNNAFYADSVKGRFTISRDNSKNTVYVQMDSLRAEETAVYYCARAGYNSNWDLGDALDIWGQGTMVTVSS
VL: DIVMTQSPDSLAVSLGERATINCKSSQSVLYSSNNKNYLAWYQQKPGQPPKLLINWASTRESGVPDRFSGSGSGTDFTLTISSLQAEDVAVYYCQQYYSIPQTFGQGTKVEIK
B9: COV57-03 (antibody, V domains shown)
VH: QVHLVESGGGVVQPGRSLRLSCAASGFTFSSFGMHWVRQAPGKGLEWVAVISDDGNNKFYADSVKGRFSISRDNSKNTLYLQMNSLRAEDTAVYYCVRAFRNSNWATGEYFDYWGQGTLVTVSS
VL: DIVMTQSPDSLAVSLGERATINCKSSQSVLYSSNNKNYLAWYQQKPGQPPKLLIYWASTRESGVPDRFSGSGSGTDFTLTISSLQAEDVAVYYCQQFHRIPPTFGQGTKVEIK
B10: COV57-04 (antibody, V domains shown)
VH: B9 VH with H3Q, S31N, K58E, D62G, A88P
VL: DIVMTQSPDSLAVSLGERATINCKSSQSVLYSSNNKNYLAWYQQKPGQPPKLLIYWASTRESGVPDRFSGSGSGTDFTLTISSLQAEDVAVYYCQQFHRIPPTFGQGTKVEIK
B11: COV78-36 (antibody, V domains shown)
VH: EVQLVQSGAEVKKPGESLRISCKGSGYSFSNSWITWVRQMPGKGLEWVGRIDTRDSRTAYSPSFEGHVFFSADRSSDTVYVQWRSLRASDTAVYYCTTGAGVVIAASYFWGQGTLVTVSS
VL: QSALTQPPSASGSPGQPVTISCTGTSSDVGGYEYVSWYQQLPGKVPTLIIHEVSKRPSGVPDRFSGSKSGNTASLTVSGLQAEDEADYYCSSYSADSSIIFGGGTKLTVL
B12: COV44-79 (antibody, V domains shown)
VH: QVQLVESGGGVVQPGRSLRLSCAASGLTFSGYAMHWVRQAPGKGLEWVAVISRDARNKYYADSVKGRFTISRDNSKKTVYLEMNSLRVEDTAVYYCAILIIPGITEPGSPDALDIWGQGTMVSVSS
VL: DIQMTQSPSSMSASVGDRVTITCRASQDISKWLAWYQQRPGKAPKLLIYAASSLQSGVPSRFSGSGSGTDFTLTISSLQPEDFATYYCQQASSFPWSITFGQGTRLEIR
B13: COV44-62 (antibody, V domains shown)
VH: QMQLMQSGAEVKKPGASVTVSCKASGDTFSDYRIHWVRQAPGQGLEWMGRMNPKSGDTNFAQKFQGRVTMTRDMSINTAYMTLSGLTFDDTALYYCASLLIVGGFDPLDDFEVWGQGTMVTISS
VL: QSALTQPPSASGSPGQSVTISCSGTSSDVGGYNFVSWYQHHPGKAPKILIYEVTKRPSGVPDRFSGSKSGNTASLTVSGLQAEDEADYYCSSYGGTNNLLFGGGTKLTVL
B14: COV91-27 (antibody, V domains shown)
VH: QVQLVESGGGVVHPGGSLRLSCAASGFTFSDFAMNWVRQAPGEGLQWVAIISYDGRNKHFAASVRGRFTISRDNSKNTMFLQMSSLRAEDTAIYYCATLGGWFEEASPTYWGRGTLVTVSS
VL: EVVLTQSPAIVSLSPGERATLSCRASQSVGSRLAWHQQKPGLAPRVLIYDASNRATGIPARFSGSGSGTDFTLTISSIEPEDSAVYYCQQRGDWPLITFGQGTRLEIK

biological target: T1, HCoV-NL63 spike protein (Sino …); test: bead flow cytometry, AUC minus CD4

Binder | binding result
B1 | no binding (tested: 200 µg/mL)
B2 | no binding (tested: 200 µg/mL)
B3 | no binding (tested: 200 µg/mL)
B4 | no binding (tested: 200 µg/mL)

biological target: SARS-CoV-2 spike receptor binding domain (RBD), recombinant (SARS-CoV-2, UniProt P0DTC2 319-541); test: bead flow cytometry, AUC minus CD4

Binder | binding result
B1 | no binding (tested: 200 µg/mL)
B5 | no binding (tested: 200 µg/mL)
B6 | no binding (tested: 200 µg/mL)
B7 | no binding (tested: 200 µg/mL)
B2 | no binding (tested: 200 µg/mL)
B8 | no binding (tested: 200 µg/mL)
B9 | no binding (tested: 200 µg/mL)
B10 | no binding (tested: 200 µg/mL)
B4 | no binding (tested: 200 µg/mL)
B11 | no binding (tested: 200 µg/mL)

biological target: SARS-CoV-2 spike N-terminal domain (NTD), recombinant (SARS-CoV-2, UniProt P0DTC2 14-305); test: bead flow cytometry, AUC minus CD4

Binder | binding result
B1 | no binding (tested: 200 µg/mL)
B5 | no binding (tested: 200 µg/mL)
B6 | no binding (tested: 200 µg/mL)
B12 | no binding (tested: 200 µg/mL)
B7 | no binding (tested: 200 µg/mL)
B2 | no binding (tested: 200 µg/mL)
B8 | no binding (tested: 200 µg/mL)
B13 | no binding (tested: 200 µg/mL)
B9 | no binding (tested: 200 µg/mL)
B10 | no binding (tested: 200 µg/mL)
B14 | no binding (tested: 200 µg/mL)
B3 | no binding (tested: 200 µg/mL)
B4 | no binding (tested: 200 µg/mL)
B11 | no binding (tested: 200 µg/mL)
